Experimental data: patent US20230235058A1 (OXFORD UNIVERSITY INNOVATION, published 2023)
Residue numbers refer to the chain shown, from its start. Names may count otherwise.

T1: human FcγR2A 131H (human, UniProt P12318 34-217)
T1 construct: extracellular domain
T1 sequence (looked up): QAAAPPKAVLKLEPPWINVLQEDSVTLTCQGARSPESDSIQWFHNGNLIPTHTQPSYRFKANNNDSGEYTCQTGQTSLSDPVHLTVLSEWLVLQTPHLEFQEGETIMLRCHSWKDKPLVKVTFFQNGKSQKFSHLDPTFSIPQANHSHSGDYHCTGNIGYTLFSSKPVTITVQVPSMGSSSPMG

T2: human FcγR2B (human, UniProt P31994 43-217)
T2 construct: extracellular domain; also called hFcγR2B; CD32B
T2 sequence (looked up): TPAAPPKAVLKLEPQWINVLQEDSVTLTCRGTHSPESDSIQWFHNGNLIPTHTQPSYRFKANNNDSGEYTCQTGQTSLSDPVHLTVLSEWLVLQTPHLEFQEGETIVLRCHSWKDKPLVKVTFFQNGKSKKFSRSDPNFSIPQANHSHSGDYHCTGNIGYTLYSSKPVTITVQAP

T3: human FcγR2A 131R (human, UniProt P12318 34-217)
T3 construct: extracellular domain
T3 sequence (looked up): T1 sequence (looked up) with H134R

T4: soluble cynomolgus macaque BTLA extracellular domain (BTLA K31-R151) (cynomolgus macaque)
T4 construct: also called cynomolgus BTLA; cyno BTLA
T4 chain: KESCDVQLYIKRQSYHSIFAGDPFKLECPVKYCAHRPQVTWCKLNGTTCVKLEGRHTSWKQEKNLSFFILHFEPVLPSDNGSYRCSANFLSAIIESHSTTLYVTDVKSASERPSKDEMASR

B1: 3E8 (antibody, IgG1, V domains shown)
VH: QVQLQQSGAELARPGASVRLSCKASGYTFTSYAIRWVKQRTGQGLEWIGEIYPRSGNTYYNENFKGKATLTADKSSSTAYMELRSLTSEDSAVYFCARSGGASYTMDYWGQGTSVTVSS
VL: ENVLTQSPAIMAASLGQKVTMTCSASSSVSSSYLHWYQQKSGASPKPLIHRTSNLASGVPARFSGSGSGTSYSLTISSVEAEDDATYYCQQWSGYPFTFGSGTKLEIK
notes: mIgG1; also called clone 3E8
B2: 8C4 (antibody, IgG1, V domains shown)
VH: DVQLQESGPGMVKPSQSLSLTCTVTGYSITSGYDWHWIRHFPGNKLEWMGYISYSGSTNYNPSLKSRISITHDTSKNHFFLKLNSVTTEDTATYYCARGTPVVAEDYFDYWGQGTTLTVSS
VL: QAVVTQESALSTSPGETVTLTCRSSTGAVTTSNYANWVQEKPDHLFTGLIGATNNRAPGVPARFSGSLIGDKAALTITGAQTEDEAIYFCALWYSNHLVFGGGTKLTVLG
notes: mIgG1
B3: 16H2 (antibody, IgG1, V domains shown)
VH: EVQLQQSGPELVQPGASVKISCKASGYTFTDYYMIWVKQSHGKSLEWIGNINPNNGGTTYNQKFKGKATLTVDKSSSTAYMGLPSLTSEDSAVYYCARGGLRPLYFDYWGQGTTLTVSS
VL: NIVMTQSPKSMSMSVGERVTLSCKASENVDTYVSWYQQKPEQSPKLLIYGASNRYTGVPDRFTGSGSATDFTLTISSVQAEDLADYHCGQSYSYPLTFGAGTKLELI
notes: mIgG1
B4: 27G9 (antibody, IgG1, V domains shown)
VH: EVQLQQSVAELVRPGASVKLSCTASGFNIKNTYMHWVKQRPEQGLEWIGRIDPANGNTKYAPKFQGKATITADTSSNTAYLQLSSLTSEDTAIYYCALTYYGSSQYYFDYWGQGTTLTVSS
VL: not shown
notes: mIgG1
B5: 1H6 (antibody, IgG1, V domains shown)
VH: B4 VH with A61D, L81V, Y106H
VL: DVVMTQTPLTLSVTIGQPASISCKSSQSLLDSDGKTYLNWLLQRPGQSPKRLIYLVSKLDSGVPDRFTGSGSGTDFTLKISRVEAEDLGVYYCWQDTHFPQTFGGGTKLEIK
notes: mIgG1
B6: 26F3 (antibody, IgG1, V domains shown)
VH: B4 VH with H35Y, T99L, Q105Y, Y106D
VL: not shown
notes: mIgG1
B7: 6.2 (antibody, IgG1, V domains shown)
VH: EVKLVESGGGLVKPGGSLKLSCAASGFTLSSYGMSWVRQIPEKRLEWVASIRSDGNTYYPDSVKGRFIISRDNARNILYLQMSSLRSEDTAMYYCTRGGYYGSSPYYWGQGTTLTVSS
VL: DIVMSQSPSSLPVSVGEKISMTCKSSQSLLYSSNQKNYLAWYQQKPGQSPKLLIYWASTRDSGVPDRFIGSGSGTDFTLTINSVKAEDLAVYYCQQYYNYLTFGAGTKLELK
notes: mIgG1; also called clone 6.2; parent clone 6.2
B8: 14D4 (antibody, IgG1, V domains shown)
VH: QVQLQQPGAELVKPRASVKLSCKASGYTFTSYWMHWVKQRPGQGLEWIGMIHPNNGIPNYNEKFKSKATLTVDKSSTTAYMQLSSLTSEDSAVYHCAREGYYGSEGYFDVWGTGTTVTVSS
VL: QIVLTQSPAIMSASPGEKVTMTCSASSSISYIHWYQQKPGTSPKRWIYDTSKLASGVPARFSGSGSGTSYSLTISSMEAEDAATYYCHQRSTYPYTFGGGTKLEIK
notes: mIgG1
B9: 26B1 (antibody, IgG1, V domains shown)
VH: EVQLQQSGPVLVKPGASVKMSCKASGYTFTDYYLNWVKQSHGKSLEWIGLIDPYNGGSSCNQKFKGKATLTVDKSSSTAYMDLNSLTSEDSAVYYCARGNAMDYWGQGTSVTVSS
VL: DIVMTQSHKFMSTSVGDRVSITCKASQDVSTAVAWYQEKPGQSPKLLIYWASTRHTGVPDRFTGSGSGTDYILNISSVQAEDLALYYCQQHYIIPYMFGGGTKLEIK
notes: mIgG1
B10: humanised 2.8.6 hIgG1 D265A S267E A330R (antibody)
heavy: QVTLKESGPALVKPTQTLTLTCTVSGFSLTTYGVHWIRQPPGKALEWLGVMWPGGRTSYNPSLKSRLTITKDNSKSQVVLTMTNMDPVDTATYYCVRGDYEYDYYAMDYWGQGTLVTVSSASTKGPSVFPLAPSSKSTSGGTAALGCLVKDYFPEPVTVSWNSGALTSGVHTFPAVLQSSGLYSLSSVVTVPSSSLGTQTYICNVNHKPSNTKVDKKVEPKSCDKTHTCPPCPAPELLGGPSVFLFPPKPKDTLMISRTPEVTCVVVAVEHEDPEVKFNWYVDGVEVHNAKTKPREEQYNSTYRVVSVLTVLHQDWLNGKEYKCKVSNKALPRPIEKTISKAKGQPREPQVYTLPPSREEMTKNQVSLTCLVKGFYPSDIAVEWESNGQPENNYKTTPPVLDSDGSFFLYSKLTVDKSRWQQGNVFSCSVMHEALHNHYTQKSLSLSPGK
light: EIVLTQSPATLSLSPGERATLSCRASSSVSYMHWYQQKPGQAPRPLIYATSNRATGIPARFSGSGSGTDYTLTISSLEPEDFAVYYCHQWSSNPYTFGQGTKLEIKRTVAAPSVFIFPPSDEQLKSGTASVVCLLNNFYPREAKVQWKVDNALQSGNSQESVTEQDSKDSTYSLSSTLTLSKADYEKHKVYACEVTHQGLSSPVTKSFNRGEC
notes: Fc variant with the variable domains of humanised 2.8.6; copies: 2 + 2

biological target: chimeric BTLA of humanised-BTLA mice (human extracellular region, murine transmembrane and signaling … (human; mouse, UniProt Q7TSA3 184-306, limits assumed); test: cell-based or functional assay
Sequence (Q7TSA3 other isoform, or with tags, fused parts or gaps mutant limits assumed): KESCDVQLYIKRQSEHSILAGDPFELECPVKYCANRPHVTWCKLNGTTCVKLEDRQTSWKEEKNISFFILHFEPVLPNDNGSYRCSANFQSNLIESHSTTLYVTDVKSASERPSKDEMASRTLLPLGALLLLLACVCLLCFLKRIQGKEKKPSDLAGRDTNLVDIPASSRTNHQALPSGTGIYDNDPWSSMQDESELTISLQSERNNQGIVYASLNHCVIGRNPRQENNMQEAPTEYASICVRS
Throughout, for AntiCD3/CD28 (CD4 T cell proliferation) repeat 1: test concentration or dose not given here.
Throughout, for AntiCD3/CD28 (CD4 T cell proliferation) repeat 2: test concentration or dose not given here.
Throughout, for AntiCD3/CD28 (CD69+ CD4 T cells) repeat 1: test concentration or dose not given here.
Throughout, for AntiCD3/CD28 (CD69+ CD4 T cells) repeat 2: test concentration or dose not given here.
Throughout, for MLR (CD4 T cell proliferation) repeat 1: test concentration or dose not given here.
Throughout, for MLR (CD4 T cell proliferation) repeat 2: test concentration or dose not given here.
Throughout, for T cell reporter (NFκB signaling): test concentration or dose not given here.

Row | Binder | AntiCD3/CD28 (CD4 T cell proliferation) repeat 1 | AntiCD3/CD28 (CD4 T cell proliferation) repeat 2 | AntiCD3/CD28 (CD69+ CD4 T cells) repeat 1 | AntiCD3/CD28 (CD69+ CD4 T cells) repeat 2 | MLR (CD4 T cell proliferation) repeat 1 | MLR (CD4 T cell proliferation) repeat 2
1 | B1 | 27 % inhibition | 35 % inhibition | 52 % inhibition | 64 % inhibition | 43 % inhibition | 35 % inhibition
2 | B2 | 12 % inhibition | 4 % inhibition | 29 % inhibition | 29 % inhibition | 42 % inhibition | -2 % inhibition
3 | B3 | 11 % inhibition | 23 % inhibition | 51 % inhibition | 60 % inhibition | 40 % inhibition | 26 % inhibition
4 | B4 | 10 % inhibition | 13 % inhibition | 24 % inhibition | 22 % inhibition | 9 % inhibition | 8 % inhibition
5 | B5 | 26 % inhibition | 19 % inhibition | 47 % inhibition | 53 % inhibition | 31 % inhibition | 16 % inhibition
6 | B6 | 4 % inhibition | 0 % inhibition | 19 % inhibition | 17 % inhibition | 9 % inhibition | -5 % inhibition
7 | B7 | 19 % inhibition | 21 % inhibition | 53 % inhibition | 61 % inhibition | 31 % inhibition | 35 % inhibition
8 | B8 | 24 % inhibition | 29 % inhibition | 43 % inhibition | 52 % inhibition | 39 % inhibition | 26 % inhibition
9 | B9 | 11 % inhibition | 19 % inhibition | 35 % inhibition | 30 % inhibition | 12 % inhibition | 10 % inhibition

biological target: full length human BTLA expressed on cells (human, UniProt Q7Z6A9 31-289); test: cell-based or functional assay

Row | Binder | T cell reporter (NFκB signaling)
10 | B1 | 30 % inhibition
11 | B2 | 21 % inhibition
12 | B3 | 29 % inhibition
13 | B4 | 24 % inhibition
14 | B5 | 26 % inhibition
15 | B6 | 20 % inhibition
16 | B7 | 26 % inhibition
17 | B8 | 16 % inhibition
18 | B9 | 29 % inhibition

biological target: T1, human FcγR2A 131H; test: SPR 37C, steady state;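 note: fc variants captured on chip-bound human BTLA ectodomain, recombinant FcγR ectodomains injected as analyte at varied concentrations, double-referenced equilibrium binding fitted to Langmuir model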
Protocol: (§1) For the low affinity FcγRs (FcγR2A, FcγR2B, FcγR3A and FcγR3B) the interactions were assessed by surface plasmon resonance with the recombinantly expressed FcRs (extracellular domains only) as analyte. Briefly, recombinant human BTLA extracellular domain (BTLA^K31-R151) was covalently immobilised to both flow cells of all channels of a CMS Series S sensor chip using the GE Healthcare Amine coupling kit. The 2.8.6 Fc variant to be assessed was then captured (approx. 500-1000 response units) in flow cell 2 of each channel. Steady state affinity analysis was then performed by injecting varying concentrations of FcR in multiple cycles and measuring equilibrium binding. Double referencing was used (subtracting the signal in the reference Fc1 and also subtracting the signal from a blank zero concentration injection). KDs were calculated from the Langmuir curves (plotting equilibrium binding against analyte concentration to determine the concentration required for half maximal binding).

Row | Binder | Kd
19 | B10 | 113000 nM

biological target: T5, human FcγR3A 158F (human, UniProt P08637 17-208); test: SPR 37C, steady state;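 note: fc variants captured on chip-bound human BTLA ectodomain, recombinant FcγR ectodomains injected as analyte at varied concentrations, double-referenced equilibrium binding fitted to Langmuir model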
T5 construct: extracellular domain
T5 sequence (P08637 17-208): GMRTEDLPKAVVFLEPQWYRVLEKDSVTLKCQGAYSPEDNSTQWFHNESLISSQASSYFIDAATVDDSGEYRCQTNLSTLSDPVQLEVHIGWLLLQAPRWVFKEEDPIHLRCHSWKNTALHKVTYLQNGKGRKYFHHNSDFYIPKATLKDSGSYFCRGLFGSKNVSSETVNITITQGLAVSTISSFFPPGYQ
Protocol: as §1

Row | Binder | binding result
20 | B10 | no binding

biological target: T6, human FcγR3B (human, UniProt O75015 17-200, limits assumed); test: SPR 37C, steady state;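 note: fc variants captured on chip-bound human BTLA ectodomain, recombinant FcγR ectodomains injected as analyte at varied concentrations, double-referenced equilibrium binding fitted to Langmuir model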
T6 construct: extracellular domain; also called CD16B
T6 sequence (O75015 17-200 limits assumed): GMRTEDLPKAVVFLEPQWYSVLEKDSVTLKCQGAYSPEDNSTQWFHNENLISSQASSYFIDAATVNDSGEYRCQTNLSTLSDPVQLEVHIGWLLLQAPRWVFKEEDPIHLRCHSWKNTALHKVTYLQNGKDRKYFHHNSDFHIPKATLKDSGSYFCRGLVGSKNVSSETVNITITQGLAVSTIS
Protocol: as §1

Row | Binder | binding result
21 | B10 | no binding

biological target: T7, human FcγR3A 158V (human, UniProt P08637 17-208); test: SPR 37C, steady state;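 note: fc variants captured on chip-bound human BTLA ectodomain, recombinant FcγR ectodomains injected as analyte at varied concentrations, double-referenced equilibrium binding fitted to Langmuir model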
T7 construct: extracellular domain
T7 sequence (P08637 17-208 F176V): as the sequence (P08637 17-208) above, with F160V counted along it
Protocol: as §1

Row | Binder | binding result
22 | B10 | no binding

biological target: T2, human FcγR2B; test: SPR 37C, steady state
Protocol: as §1

Row | Binder | Kd
23 | B10 | 80100 nM

biological target: T3, human FcγR2A 131R; test: SPR 37C, steady state
Protocol: as §1

Row | Binder | Kd
24 | B10 | 22000 nM

Biological target: T4, soluble cynomolgus macaque BTLA …
Test: SPR 37C, mAb captured, BTLA ECD analyte;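 note: Anti-BTLA mouse antibodies captured on a sensor chip via polyclonal anti-mouse IgG, isotype control antibody in reference channel, rates fitted after reference and blank subtraction to derive Kd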
Protocol: (§2) Mouse antibody capture kit (GE Healthcare) was used to coat a Series S CMS Sensor Chip (GE Healthcare) with polyclonal anti-mouse IgG. Anti-BTLA antibody was then captured onto the biosensor surface and a negative control antibody (clone Mopc21; Biolegend) captured in the reference channel. […] Association and dissociation rates were fitted using BiaEvaluation Software (GE Healthcare) after reference and blank subtractions, and dissociation constants were calculated (FIG. 1b).

Row | Binder | Kd
25 | B1 | 607 nM
26 | B2 | 161 nM
27 | B3 | 160 nM
28 | B4 | 654 nM
29 | B5 | 6.08 nM
30 | B6 | 810 nM
31 | B7 | 9.71 nM
32 | B8 | 1.83 nM
33 | B9 | 168 nM

biological target: T8, monomeric soluble human BTLA extracellular domain (BTLA K31-R151) (human, UniProt Q7Z6A9 31-151); test: SPR 37C, mAb captured, BTLA ECD analyte;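 note: Anti-BTLA mouse antibodies captured on a sensor chip via polyclonal anti-mouse IgG, isotype control antibody in reference channel, rates fitted after reference and blank subtraction to derive Kd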
T8 construct: also called hBTLA; monomeric BTLA
Protocol: as §2

Row | Binder | Kd | koff | kon
34 | B1 | 112 nM | 0.0608 s⁻¹ | 543000 M⁻¹ s⁻¹
35 | B4 | 437 nM | 0.0838 s⁻¹ | 192000 M⁻¹ s⁻¹
36 | B6 | 2200 nM | 2.02 s⁻¹ | 921000 M⁻¹ s⁻¹
37 | B7 | 1.7 nM | 0.00107 s⁻¹ | 630000 M⁻¹ s⁻¹
